The supplement of paper PMC7877785
± gives the uncertainty stated by the source.

Assay: self-splicing fitness, log relative to wild type (ln ratio); higher = more splicing; Tetrahymena group I intron in knt gene, E. coli kanamycin selection, DiMSum; sequences stand for … in CUCUCU…GGAGGGAAAAGUUAUCAGGCAUGCACCUGGUAGCUAGUCUUUAAACCAAUAGAUUGCAUCGGUUUAAAAGGCAAGACCGUCAAAUUGCGGGAAAGGGGUCAACAGCCGUUCAGUACCAAGUCUCAGGGGAAACUUUGAGAUGGCCUUGCAAAGGGUAUGGUAAUAAGCUGACGGACAUGGUCCUAACCACGCAGCCAAGUCCUAAGUCAACAGAUCUUCUGUUGAUAUGGAUGCAGUUCACAGACUAAAUGUCGGUCGGGGAAGAUGUAUUCUUCUCAUAAGAUAUAGUCGGACCUCUCCUUAAUGGGAGCUAGCGGAUGAAGUGAUGCAACACUGGAGCCGCUGGGAACUAAUUUGUAUGCGAAAGUAUAUUGAUUAGUUUUGGAGUACUCGUGGUCG
Outline: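 Six replicate transformations of E. coli BL21(DE3) with a pET-22b(+) library were grown overnight at 37°C or 30°C. The library randomised all eight P1ex-region intron nucleotides, the intron lying in the knt kanamycin-resistance gene, and plates were LB agar with or without 25 μg/mL kanamycin plus 100 μg/mL carbenicillin, 50 μM IPTG and 0.2% rhamnose. Pooled colonies were amplicon-sequenced on an Illumina HiSeq 2500, and fitness is the DiMSum error-weighted combination of wild-type-normalised replicate fold changes, kanamycin versus none.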

| Sequence | self-splicing fitness (ln) (37 °C) | self-splicing fitness (ln) (30 °C) |
| --- | --- | --- |
| CUUGAGCAAUAUUACGCCUC | -0.747 ± 0.3 | – |
| CUUGAGCAAUAUUACGCGAC | -0.595 ± 0.16 | -3.55 ± 0.28 |
| CUUGAGCAAUAUUACGCGGA | -3.47 ± 0.31 | -2.71 ± 0.33 |
| CUUGAGCAAUAUUACGCUGG | -2.17 ± 0.17 | -3.81 ± 0.25 |
| CUUGAGCAAUAUUACGGAAU | -2.3 ± 0.48 | -2.85 ± 0.41 |
| CUUGAGCAAUAUUACGGGAA | -2.73 ± 0.2 | -3.79 ± 0.42 |
| CUUGAGCAAUAUUACGGGCG | -1.51 ± 0.11 | -2.02 ± 0.13 |
| CUUGAGCAAUAUUACGGGGA | -2.87 ± 0.28 | -3.27 ± 0.2 |
| CUUGAGCAAUAUUACGGUCC | – | -0.924 ± 0.28 |
| CUUGAGCAAUAUUACGGUCU | -3.61 ± 0.37 | -3.17 ± 0.29 |
| CUUGAGCAAUAUUACGGUGU | -3.01 ± 0.18 | -3 ± 0.13 |
| CUUGAGCAAUAUUACGUAGA | -3.91 ± 0.39 | -3.54 ± 0.21 |
| CUUGAGCAAUAUUACGUAUG | -1.35 ± 0.14 | -1.21 ± 0.1 |
| CUUGAGCAAUAUUACGUCCG | -0.79 ± 0.19 | -1.86 ± 0.19 |
| CUUGAGCAAUAUUACGUCGC | -1.81 ± 0.19 | -2.54 ± 0.21 |
| CUUGAGCAAUAUUACGUCUC | -2.19 ± 0.27 | -3.07 ± 0.24 |
| CUUGAGCAAUAUUACGUCUG | -0.657 ± 0.11 | -0.671 ± 0.086 |
| CUUGAGCAAUAUUACGUCUU | -2.48 ± 0.2 | -4.1 ± 0.21 |
| CUUGAGCAAUAUUACGUGUU | -2.54 ± 0.23 | – |
| CUUGAGCAAUAUUACGUUAG | -1.11 ± 0.15 | -3.13 ± 0.2 |
| CUUGAGCAAUAUUACGUUCG | -1.71 ± 0.21 | -3.19 ± 0.3 |
| CUUUAGCAAUAUUACGACAC | -2.54 ± 0.27 | -3.75 ± 0.3 |
| CUUUAGCAAUAUUACGACAU | -2.81 ± 0.043 | -3.762 ± 0.032 |
| CUUUAGCAAUAUUACGAGGA | -3.02 ± 0.4 | -2.59 ± 0.32 |
| CUUUAGCAAUAUUACGCGUG | -1.12 ± 0.17 | -1.89 ± 0.14 |

| Sequence | self-splicing fitness (ln) (37 °C) | self-splicing fitness (ln) (30 °C) |
| --- | --- | --- |
| CUUUAGCAAUAUUACGCUCU | -1.3 ± 0.26 | -2.15 ± 0.22 |
| CUUUAGCAAUAUUACGGAAU | -1.73 ± 0.36 | -1.75 ± 0.23 |
| CUUUAGCAAUAUUACGGACA | -1.44 ± 0.28 | -2.76 ± 0.38 |
| CUUUAGCAAUAUUACGGGUC | -1.32 ± 0.21 | -3.26 ± 0.17 |
| CUUUAGCAAUAUUACGUAAA | -2.24 ± 0.28 | – |
| CUUUAGCAAUAUUACGUAGU | -2.2 ± 0.22 | -3.52 ± 0.2 |
| CUUUAGCAAUAUUACGUGAG | -0.581 ± 0.14 | -1.07 ± 0.11 |
| CUUUAGCAAUAUUACGUGUA | -2.81 ± 0.24 | -3.34 ± 0.19 |
| CUUUAGCAAUAUUACGUUCU | -2.78 ± 0.29 | -3.16 ± 0.25 |
| GAAAAGCAAUAUUACGAACG | -0.364 ± 0.11 | -0.893 ± 0.083 |
| GAAAAGCAAUAUUACGAACU | 0.532 ± 0.13 | -0.519 ± 0.1 |
| GAAAAGCAAUAUUACGAAGG | -3.01 ± 0.37 | -3.27 ± 0.24 |
| GAAAAGCAAUAUUACGAAUC | -1.04 ± 0.18 | -2.99 ± 0.21 |
| GAAAAGCAAUAUUACGACAG | -2.27 ± 0.25 | -2.55 ± 0.19 |
| GAAAAGCAAUAUUACGACCG | -0.33 ± 0.17 | -0.942 ± 0.14 |
| GAAAAGCAAUAUUACGACGG | -2.4 ± 0.32 | -2.29 ± 0.17 |
| GAAAAGCAAUAUUACGAGAG | -2.48 ± 0.21 | -3.43 ± 0.28 |
| GAAAAGCAAUAUUACGAGAU | -2.08 ± 0.28 | -3.26 ± 0.26 |
| GAAAAGCAAUAUUACGAGUU | 0.164 ± 0.094 | -1.15 ± 0.073 |
| GAAAAGCAAUAUUACGCAAC | -0.437 ± 0.16 | -2.92 ± 0.16 |
| GAAAAGCAAUAUUACGCCCG | -0.75 ± 0.21 | -0.583 ± 0.14 |
| GAAAAGCAAUAUUACGCCGG | -1.2 ± 0.17 | -1.34 ± 0.18 |
| GAAAAGCAAUAUUACGCCUA | -0.681 ± 0.099 | -1.15 ± 0.11 |
| GAAAAGCAAUAUUACGCGCA | -0.0235 ± 0.084 | -0.195 ± 0.062 |
| GAAAAGCAAUAUUACGGCCC | 0.473 ± 0.17 | 0.0394 ± 0.14 |

| Sequence | self-splicing fitness (ln) (37 °C) | self-splicing fitness (ln) (30 °C) |
| --- | --- | --- |
| GAAAAGCAAUAUUACGGCUG | 0.108 ± 0.14 | -0.13 ± 0.091 |
| GAAAAGCAAUAUUACGUAAG | -0.733 ± 0.12 | -2.23 ± 0.11 |
| GAAAAGCAAUAUUACGUAGU | -1.75 ± 0.13 | -2.02 ± 0.077 |
| GAAAAGCAAUAUUACGUGUA | -0.56 ± 0.085 | -2.58 ± 0.11 |
| GAAAAGCAAUAUUACGUGUC | -2.33 ± 0.14 | -3.41 ± 0.13 |
| GAAAAGCAAUAUUACGUUAC | -1.84 ± 0.13 | -2.67 ± 0.12 |
| GAAAAGCAAUAUUACGUUCC | -2.95 ± 0.24 | -3.72 ± 0.26 |
| GAAAAGCAAUAUUACGUUGG | -2.16 ± 0.16 | -3.55 ± 0.19 |
| GAAAAGCAAUAUUACGUUUC | -2.69 ± 0.25 | -2.95 ± 0.17 |
| GAACAGCAAUAUUACGACAA | -0.239 ± 0.15 | -1.24 ± 0.13 |
| GAACAGCAAUAUUACGACCA | -0.113 ± 0.12 | -0.754 ± 0.12 |
| GAACAGCAAUAUUACGACCU | -0.0216 ± 0.13 | -0.509 ± 0.099 |
| GAACAGCAAUAUUACGACUC | -0.517 ± 0.082 | 0.0151 ± 0.071 |
| GAACAGCAAUAUUACGAGCG | -0.559 ± 0.1 | -1.94 ± 0.089 |
| GAACAGCAAUAUUACGAUGG | -1.17 ± 0.13 | -3.04 ± 0.19 |
| GAACAGCAAUAUUACGCCAC | – | -3.15 ± 0.22 |
| GAACAGCAAUAUUACGCCGG | -0.838 ± 0.24 | -1.56 ± 0.18 |
| GAACAGCAAUAUUACGCCGU | -1.61 ± 0.13 | -1.98 ± 0.13 |
| GAACAGCAAUAUUACGCGAC | -2.36 ± 0.18 | -2.3 ± 0.14 |
| GAACAGCAAUAUUACGCGAG | -1.32 ± 0.11 | -2.2 ± 0.099 |
| GAACAGCAAUAUUACGCGAU | -2.27 ± 0.14 | -2.87 ± 0.13 |
| GAACAGCAAUAUUACGCUGU | -2.99 ± 0.19 | -3.8 ± 0.14 |
| GAACAGCAAUAUUACGGAAA | -1.12 ± 0.14 | -2.42 ± 0.16 |
| GAACAGCAAUAUUACGGAAU | -1.18 ± 0.11 | -1.6 ± 0.095 |
| GAACAGCAAUAUUACGGAGA | -1.88 ± 0.13 | -1.55 ± 0.19 |

| Sequence | self-splicing fitness (ln) (37 °C) | self-splicing fitness (ln) (30 °C) |
| --- | --- | --- |
| GAACAGCAAUAUUACGGAGU | -1.66 ± 0.1 | -2.35 ± 0.066 |
| GAACAGCAAUAUUACGGCCU | -0.067 ± 0.14 | -1.14 ± 0.11 |
| GAACAGCAAUAUUACGGCUG | -2.06 ± 0.15 | -2.78 ± 0.14 |
| GAACAGCAAUAUUACGGUAA | -0.286 ± 0.064 | -1.2 ± 0.059 |
| GAACAGCAAUAUUACGGUAU | -0.269 ± 0.074 | -0.973 ± 0.053 |
| GAACAGCAAUAUUACGGUUU | -1.34 ± 0.14 | -3.41 ± 0.13 |
| GAACAGCAAUAUUACGUCAC | -0.689 ± 0.17 | -3.44 ± 0.23 |
| GAACAGCAAUAUUACGUUUC | -2.53 ± 0.14 | -4.43 ± 0.14 |
| GAAGAGCAAUAUUACGAAUA | -1.63 ± 0.35 | – |
| GAAGAGCAAUAUUACGAAUG | – | -2.23 ± 0.4 |
| GAAGAGCAAUAUUACGACCA | -1.46 ± 0.36 | -1.34 ± 0.14 |
| GAAGAGCAAUAUUACGACGA | -2.03 ± 0.42 | – |
| GAAGAGCAAUAUUACGAGCG | -0.882 ± 0.17 | -3.17 ± 0.2 |
| GAAGAGCAAUAUUACGAGUA | -2.75 ± 0.38 | -3.78 ± 0.37 |
| GAAGAGCAAUAUUACGAGUU | -2.03 ± 0.21 | -2.61 ± 0.16 |
| GAAGAGCAAUAUUACGAUCU | -0.955 ± 0.18 | -1.21 ± 0.14 |
| GAAGAGCAAUAUUACGAUUU | -1.04 ± 0.14 | -1.31 ± 0.079 |
| GAAGAGCAAUAUUACGCCCU | -1.38 ± 0.31 | -2.24 ± 0.22 |
| GAAGAGCAAUAUUACGCCGU | -2.96 ± 0.43 | -2.88 ± 0.44 |
| GAAGAGCAAUAUUACGCGCG | -1.36 ± 0.22 | -2.21 ± 0.3 |
| GAAGAGCAAUAUUACGCGUG | -1.32 ± 0.085 | -2.43 ± 0.078 |
| GAAGAGCAAUAUUACGCUCG | -1.37 ± 0.21 | -2.32 ± 0.21 |
